According to patent publication US20090099029A1, “Methods and substrates for conducting assays” (Invitrogen Corporation, priority 2005, published 2009):

Test system: kinases of Table 6 on Myelin Basic Protein (MBP)
Experiment: Kinase assay using MBP substrate, ProQ Diamond stain (Table 6)
Assay type: biochemical
Settings: kinase printed on MBP-coated slide; 20 uM ATP, 30° C.; ProQ Diamond Microarray Stain; graded Strong/Weak/Negative
Outline: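 Bovine dephosphorylated MBP coated on aldehyde- or epoxy-glass slides, kinases printed on top; reaction buffer pH 7.5 with 4 mM MgCl2, 20 uM ATP, 5% DMSO, ± inhibitor, at 30° C. Phosphorylation detected by ProQ Diamond stain, 30 min in dark.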

| Molecule | MBP Kinase Activity |
| --- | --- |
| PRKCZ (protein) MPSRTGPKMEGSGGRVRLKAHYGGDIFITSVDAATTFEELCEEVRDMCRLHQQHPLTLKWVDSEGDPCTVSSQMELEEAFRLARQCRDEGLIIHVFPSTPEQPGLPCPGEDKSIYRRGARRWRKLYRANGHLFQAKRFNRRAYCGQCSERIWGLARQGYRCINCKLLVHKRCHGLVPLTCRKHMDSVMPSQEPPVDDKNEDADLPSEETDGIAYISSSRKHDSIKDDSEDLKPVIDGMDGIKISQGLGLQDFDLIRVIGRGSYAKVLLVRLKKNDQIYAMKVVKKELVHDDEDIDWVQTEKHVFEQASSNPFLVGLHSCFQTTSRLFLVIEYVNGGDLMFHMQRQRKLPEEHARFYAAEICIALNFLHERGIIYRDLKLDNVLLDADGHIKLTDYGMCKEGLGPGDTTSTFCGTPNYIAPEILRGEEYGFSVDWWALGVLMFEMMAGRSPFDIITDNPDMNTEDYLFQVILEKPIRIPRFLSVKASHVLKGFLNKDPKERLGCRPQTGFSDIKSHAFFRSIDWDLLEKKQALPPFQPQITDDYGLDNFDTQFTSEPVQLTPDDEDAIKRIDQSEFEGFEYINPLLLSTEESV | Strong |
| PRKD1(PKD) (protein, left off: a dimerising Fc or GST) MSAPPVLRPPSPLLPVAAAAAAAAAALVPGSGPGPAPFLAPVAAPVGGISFHLQIGLSREPVLLLQDSSGDYSLAHVREMACSIVDQKFPECGFYGMYDKILLFRHDPTSENILQLVKAASDIQEGDLIEVVLSASATFEDFQIRPHALFVHSYRAPAFCDHCGEMLWGLVRQGLKCEGCGLNYHKRCAFKIPNNCSGVRRRRLSNVSLTGVSTIRTSSAELSTSAPDEPLLQKSPSESFIGREKRSNSQSYIGRPIHLDKILMSKVKVPHTFVIHSYTRPTVCQYCKKLLKGLFRQGLQCKDCRFNCHKRCAPKVPNNCLGEVTINGDLLSPGAESDVVMEEGSDDNDSERNSGLMDDMEEAMVQDAEMAMAECQNDSGEMQDPDPDHEDANRTISPSTSNNIPLMRVVQSVKHTKRKSSTVMKEGWMVHYTSKDTLRKRHYWRLDSKCITLFQNDTGSRYYKEIPLSEILSLEPVKTSALIPNGANPHCFEITTANVVYYVGENVVNPSSPSPNNSVLTSGVGADVARMWEIAIQHALMPVIPKGSSVGTGTNLHRDISVSISVSNCQIQENVDISTVYQIFPDEVLGSGQFGIVYGGKHRKTGRDVAIKIIDKLRFPTKQESQLRNEVAILQNLHHPGVVNLECMFETPERVFVVMEKLHGDMLEMILSSEKGRLPEHITKFLITQILVALRHLHFKNIVHCDLKPENVLLASADPFPQVKLCDFGFARIIGEKSFRRSVVGTPAYLAPEVLRNKGYNRSLDMWSVGVIIYVSLSGTFPFNEDEDIHDQIQNAAFMYPPNPWKEISHEAIDLINNLLQVKMRKRYSVDKTLSHPWLQDYQTWLDLRELECKIGERYITHESDDLRWEKYAGEQGLQYPTHLINPSASHSDTPETEETEMKALGERVSIL | Weak |
| PRKD2(PKD2) (protein, left off: a dimerising Fc or GST) MATAPSYPAGLPGSPGPGSPPPPGGLELQSPPPLLPQIPAPGSGVSFHIQIGLTREFVLLPAASELAHVKQLACSIVDQKFPECGFYGLYDKILLFKHDPTSANLLQLVRSSGDIQEGDLVEVVLSASATFEDFQIRPHALTVHSYRAPAFCDHCGEMLFGLVRQGLKCDGCGLNYHKRCAFSIPNNCSGARKRRLSSTSLASGHSVRLGTSESLPCTAEELSRSTTELLPRRPPSSSSSSSASSYTGRPIELDKMLLSKVKVPHTFLIHSYTRPTVCQACKKLLKGLFRQGLQCKDCKFNCHKRCATRVPNDCLGEALINGDVPMEEATDFSEADKSALMDESEDSGVIPGSHSENALHASEEEEGEGGKAQSSLGYIPLMRVVQSVRHTTRKSSTTLREGWVVHYSNKDTLRKRHYWRLDCKCITLFQNNTTNRYYKEIPLSEILTVESAQNFSLVPPGTNPHCFEIVTANATYFVGEMPGGTPGGPSGQGAEAARGWETAIRQALMPVILQDAPSAPGHAPHRQASLSISVSNSQIQENVDIATVYQIFPDEVLGSGQFGVVYGGKHRKTGRDVAVKVIDKLRFPTKQESQLRNEVAILQSLRHPGIVNLECMFETPEKVFVVMEKLHGDMLEMILSSEKGRLPERLTKFLITQILVALRHLHFKNIVHCDLKPENVLLASADPFPQVKLCDFGFARIIGEKSFRRSVVGTPAYLAPEVLLNQGYNRSLDMWSVGVIMYVSLSGTFPFNEDEDINDQIQNAAFMYPASPWSHISAGAIDLINNLLQVKMRKRYSVDKSLSHPWLQEYQTWLDLRELEGKMGERYITHESDDARWEQFAAEHPLPGSGLPTDRDLGGACPPQDHDMQGLAERISVL | Strong |
| PRKCN(PKD3) (protein, left off: a dimerising Fc or GST) MSANNSPPSAQKSVLPTAIPAVLPAASPCSSPKTGLSARLSNGSFSAPSLTNSRGSVHTVSFLLQIGLTRESVTIEAQELSLSAVKDLVCSIVYQKFPECGFFGMYDKILLFRHDMNSENILQLITSADEIHEGDLVEVVLSALATVEDFQIRPHTLYVHSYKAPTFCDYCGEMLWGLVRQGLKCEGCGLNYHKRCAFKIPNNCSGVRKRRLSNVSLPGPGLSVPRPLQPEYVALPSEESHVHQEPSKRIPSWSGRPIWMEKMVMCRVKVPHTFAVHSYTRPTICQYCKRLLKGLFRQGMQCKDCKFNCHKRCASKVPRDCLGEVTFNGEPSSLGTDTDIPMDIDNNDINSDSSRGLDDTEEPSPPEDKMFFLDPSDLDVERDEEAVKTISPSTSNNIPLMRVVQSIKHTKRKSSTMVKEGWMVHYTSRDNLRKRHYWRLDSKCLTLFQNESGSKYYKEIPLSEILRISSPRDFTNISQGSNPHCFEIITDTMVYFVGENNGDSSHNPVLAATGVGLDVAQSWEKAIRQALMPVTPQASVCTSPGQGKDHKDLSTSISVSNCQIQENVDISTVYQIFADEVLGSGQFGIVYGGKHRKTGRDVAIKVIDKMRFPTKQESQLRNEVAILQNLHHPGIVNLECMFETPERVFVVMEKLHGDMLEMILSSEKSRLPERITKFMVTQILVALRNLHFKNIVHCDLKPENVLLASAEPFPQVKLCDFGFARIIGEKSFRRSVVGTPAYLAPEVLRSKGYNRSLDMWSVGVIIYVSLSGTFPFNEDEDINDQIQNAAFMYPPNPWREISGEAIDLINNLLQVKMRKRYSVDKSLSHPWLQDYQTWLDLREFETRIGERYITHESDDARWEIHAYTHNLVYPKHFIMAPNPDDMEEDP | Weak |
| PRKX (protein, left off: a dimerising Fc or GST) MEAPGLAQAAAAESDSRKVAEETPDGAPALCPSPEALSPEPPVYSLQDFDTLATVGTGTFGRVHLVKEKTAKHFFALKVMSIPDVIRLKQEQHVHNEKSVLKEVSHPFLIRLFWTWHDERFLYMLMEYVPGGELFSYLRNRGRFSSTTGLFYSAEIICAIEYLHSKEIVYRDLKPENILLDRDGHIKLTDFGFAKKLVDRTWTLCGTPEYLAPEVIQSKGHGRAVDWWALGILIFEMLSGFPPFFDDNPFGIYQKILAGKIDFPRHLDFHVKDLIKKLLVVDRTRRLGNMKNGANDVKHHRWFRSVDWEAVPQRKLKPPIVPKIAGDGDTSNFETYPENDWDTAAPVPQKDLEIFKNF | Negative |
| EPHB3 (protein, left off: a dimerising Fc or GST) CLRKQRHGSDSEYTEKLQQYIAPGMKVYIDPFTYEDPNEAVREFAKEIDVSCVKIEEVIGAGEFGEVCRGRLKQPGRREVFVAIKTLKVGYTERQRRDFLSEASIMGQFDHPNIIRLEGVVTKSRPVMILTEFMENCALDSFLRLNDGQFTVIQLVGMLRGIAAGMKYLSEMNYVHRDLAARNILVNSNLVCKVSDFGLSRFLEDDPSDPTYTSSLGGKIPIRWTAPEAIAYRKFTSASDVWSYGIVMWEVMSYGERPYWDMSNQDVINAVEQDYRLPPPMDCPTALHQLMLDCWVRDRNLRPKFSQIVNTLDKLIRNAASLKVIASAQSGMSQPLLDRTVPDYTTFTTVGDWLDAIKMGRYKESFVSAGFASFDLVAQMTAEDLLRIGVTLAGHQKKILSSIQDMRLQMNQTLPVQV | Strong |
| ROCK1 (protein, left off: a dimerising Fc or GST) MSTGDSFETRFEKMDNLLRDPKSEVNSDCLLDGLDALVYDLDFPALRKNKNIDNFLSRYKDTINKIRDLRMKAEDYEVVKVIGRGAFGEVQLVRHKSTRKVYAMKLLSKFEMIKRSDSAFFWEERDIMAFANSPWVVQLFYAFQDDRYLYMVMEYMPGGDLVNLMSNYDVPEKWARFYTAEVVLALDAIHSMGFIHRDVKPDNMLLDKSGHLKLADFGTCMKMNKEGMVRCDTAVGTPDYISPEVLKSQGGDGYYGRECDWWSVGVFLYEMLVGDTPFYADSLVGTYSKIMNHKNSLTFPDDNDISKEAKNLICAFLTDREVRLGRNGVEEIKRHLFFKNDQWAWETLRDTVAPVVPDLSSDIDTSNFDDLEEDKGEEETFPIPKAFVGNQLPFVGFTYYSNRRYLSSANPNDNRTSSNADKSLQESLQKTIYKLEEQLHNEMQLKDEMEQKCRTSNIKLDKIMKELDEEGNQRRNLESTVSQIEKEKMLLQHRINEYQRKAEQENEKRRNVENEVSTLKDQLEDLKKVSQNSQL | Strong |
| ROCK2 (protein, left off: a dimerising Fc or GST) MSRPPPTGKMPGAPETAPGDGAGASRQRKLEALIRDPRSPINVESLLDGLNSLVLDLDFPALRKNKNIDNFLNRYEKIVKKIRGLQMKAEDYDVVKVIGRGAFGEVQLVRHKASQKVYAMKLLSKFEMIKRSDSAFFWEERDIMAFANSPWVVQLFYAFQDDRYLYMVMEYMPGGDLVNLMSNYDVPEKWAKFYTAEVVLALDAIHSMGLIHRDVKPDNMLLDKHGHLKLADFGTCMKMDETGMVHCDTAVGTPDYISPEVLKSQGGDGFYGRECDWWSVGVFLYEMLVGDTPFYADSLVGTYSKIMDHKNSLCFPEDAEISKHAKNLICAFLTDREVRLGRNGVEEIRQHPFFKNDQWHWDNIRETAAPVVPELSSDIDSSNFDDIEDDKGDVETFPIPKAFVGNQLPFIGFTYYRENLLLSDSPSCRETDSIQSRKNEESQEIQKKLYTLEEHLSNEMQAKEELEQKCKSVNTRLEKTAKELEEEITLRKSVESALRQLEREKALLQHKNAEYQRKADHEADKKRNLENDVNSLKDQLEDLKKRNQNSQI | Strong |
